# Assays:
# hHsp70 (Homo sapiens) = hHsp70 (Homo sapiens) (UniProt P0DMV8); test: SPR; details: cited from earlier work
# [1] = biological target: Plasmodium falciparum Hsp70-z (PfHsp70-z), recombinant (His)6-PfHsp70-z (Plasmodium falciparum); test: SPR; ProteOn XPR36, GLC chip, ligand immobilised by amine coupling (PfHsp70-z, 187 RU); analyte 125-2000 nM at 50 ul/min; 25°C; PBS-Tween with 20 mM EDTA, pH 7.4; with 5 mM ADP; Langmuir model
# [2] = biological target: Plasmodium falciparum Hsp70-z (PfHsp70-z), recombinant (His)6-PfHsp70-z (Plasmodium falciparum); test: SPR; ProteOn XPR36, GLC chip, ligand immobilised by amine coupling (PfHsp70-z, 187 RU); analyte 125-2000 nM at 50 ul/min; 25°C; PBS-Tween with 20 mM EDTA, pH 7.4; no nucleotide; Langmuir model
# [3] = biological target: Plasmodium falciparum Hsp70-z (PfHsp70-z), recombinant (His)6-PfHsp70-z (Plasmodium falciparum); test: SPR; ProteOn XPR36, GLC chip, ligand immobilised by amine coupling (PfHsp70-z, 187 RU); analyte 125-2000 nM at 50 ul/min; 25°C; PBS-Tween with 20 mM EDTA, pH 7.4; with 5 mM ATP; Langmuir model
# [4] = tested on: Nc1ncnc2c1ncn2[C@@H]1O[C@H](COP(=O)(O)OP(=O)(O)OP(=O)(O)O)[C@@H](O)[C@H]1O; test: purified protein; details: basal ATPase, buffer presumably as for PfHsp70-z (pH 7.5, MgCl2), kcat unit as printed
# hHsp70, sequence (P0DMV8 2-641): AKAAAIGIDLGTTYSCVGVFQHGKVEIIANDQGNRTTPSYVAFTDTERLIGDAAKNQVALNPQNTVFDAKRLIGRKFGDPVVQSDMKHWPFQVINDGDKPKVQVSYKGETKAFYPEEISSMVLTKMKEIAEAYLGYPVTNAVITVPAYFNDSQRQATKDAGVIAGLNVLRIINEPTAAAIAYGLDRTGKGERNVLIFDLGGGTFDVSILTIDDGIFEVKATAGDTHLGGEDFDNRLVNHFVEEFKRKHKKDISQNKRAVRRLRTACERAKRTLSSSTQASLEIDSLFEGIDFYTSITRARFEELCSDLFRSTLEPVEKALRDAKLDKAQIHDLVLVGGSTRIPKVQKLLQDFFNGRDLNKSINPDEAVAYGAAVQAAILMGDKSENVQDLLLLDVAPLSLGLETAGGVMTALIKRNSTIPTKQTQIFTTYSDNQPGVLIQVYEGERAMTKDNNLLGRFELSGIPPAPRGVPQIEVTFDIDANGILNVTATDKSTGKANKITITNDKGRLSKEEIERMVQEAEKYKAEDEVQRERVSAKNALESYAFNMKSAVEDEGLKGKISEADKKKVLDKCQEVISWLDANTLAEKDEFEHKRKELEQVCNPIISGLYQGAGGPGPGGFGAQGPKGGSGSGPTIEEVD
substance,measurement,setting,value
hHsp70 (from UniProt P0DMV8),Kd,hHsp70 (Homo sapiens),4.5 nM
"Plasmodium falciparum Hsp70-z (PfHsp70-z), recombinant (His)6-PfHsp70-z (natural protein)",Kd,[1],11.5 nM
same,koff,[1],7.6e-05 s⁻¹
same,kon,[1],6620 M⁻¹ s⁻¹
same,Kd,[2],7.97 nM
same,koff,[2],9.54e-05 s⁻¹
same,kon,[2],12000 M⁻¹ s⁻¹
same,Kd,[3],11.3 nM
same,koff,[3],3.2e-05 s⁻¹
same,kon,[3],2840 M⁻¹ s⁻¹
PfHsp70-1 (Plasmodium falciparum 3D7),Km,[4],428 (+/- 5) μM
same,Vmax,[4],0.0246 µmol/min/mg

# Reference: publication PMC4471362
